Here are results for 18 sequences from a protein production outcome set (Wang et al. 2014).

A short description of this series: label from the status in PepcDB records.

On to “MHEDRKRRRGKLRTAVHFKAPRRARFSRFPLFPRLNPMPAAPTDAHAALPIALRDLIRLHAPQATLLAAIGQRILNIQAEGAPTEEAQLVPPDDWLEHGDLAWITRDGALLGLLWSDGAPVPDGAVQVLTLLLSAASAEGASREADMLITQLPAATAWLSAELEFRQVSRTFLELFGLTGADVLGRTVHEVFPDHAALAQQLDSAAAGRAVQLGDERVPSLPGHSGERWLRGSARPYFGGAAAGVLWTVQDVSTEHTQTTQFAALLGTDLPLALLGPGGAVQGASRGMRQLLGEPEDLAEAQAHPQRPLHEWPCWAPAGARLLQDLIQSAEAGRPSPVPSEIALARGGQLPLLVRRSDTVPGLLLAEGVRPAAVSEDNGAARLLHLSGAATILLDPQGRVQLISEPAARLLGFDPHNIALTGLPLPRLHQQLGIKLHTPQGNPLTVPPLSALTLPHNGEVLAVLPGGVTRHLEISLSALPGSGQSTGSSAASPGRSAAPELLLSLRDVTTLRRAQAKLRHDASHDGLTGLLNRSGLRAALGQATAAQTGGMVACLDIDGFGGLNAALSRTAGDLLLIQVAARLNDLAELEGGQAARLADDTFAVYLPQLGAAVGGQKLQAALREPLRTGKRLVPVTFSLGAAPLLAAAPEQALADAEVALQHARRQGRGQLTVFEPDMRAEEAQTFELEDQLRAVLDRGLQHEQFSLLYQPAVSLKDGRVLGAEALLRWTHPELGNVSPARFLPLAQRSDLITSIGEWVVREAVQGRTQLRDATGQRNWRTSVNLSLEELRREGAIERLLPLITRPSALDIEVSASSLLDHSEETLGLLDALRARGARLIVDDFGDGASSLTALTQFPLYGVKLHPTLTTRLPGDQKSLKLVQGTVSLAHSLGLTVTAVGVETYAQLDMLRDLGCDAAQGYALTPPLSAGDLVTWVQGR”, for which the protein production entry was “failed”.
Under “MHEIAPLSPAAAALADFQPDRGPAALNGAAVFCGFAPRPLDDGFTWADFGCGLGITASILAAANPQGRFFAIDADGQALAAGRALAKAAFLDNLTFLQADYTKPHDLDLPPLDFAVLGNVLCWLDGQERQALLSRLGTLLKPGGIVLATYDALPGAAALVPLRDLLFSVTAGQAANPVARARAAIDWLGAMRAAGIDFFRDNPALGPRLDALIERGPQALAGRFFGGTLRPLHFAQVNAEMAAQGLTFAGRAEAFLNLIDLAVPAALRPRLRAATSRAEVEATRDFIRNEDHRRDLYIKGAAPSDGAALTAFDDGRILGPAAAPGQANPEVSFGAVSLSFRGALFESLLAALDLGPRPVGELCASAALEGVPPGLIRDGLRLLTAGGLARPYARAADVAPAAPPVWPLRLPHPLNRALALTLGLGGPTVALASKVLGDGVVMDNRDALLLVALCDAGPEGAVERALAILADQAIPCGPATTQALTDRLSPLITDILPWLRVLGVVEG” stands “failed”.
Regarding “MHEKLLTLCDCAFEARLIELEMRVSFQEQALTEISEALAETRLIGARNAELMRHLLEELGKVRNTLYEHPIDEPPPHY”, the protein production entry is on record as “failed”.
For “MHEQLSPRDQELEARLVELETRLSFQEQALTELSEALADARLTGARNAELIRHLLEDLGKVRSTLFADAADEPPPPHY”, the protein production result is “not failed”.
With “MHETKVKLSNGLELHVEVGGNPDHPTILLIMGLGAQMLFWPDFFCKSLIDQGFYVIRFDNRDIGLSSKIRHKGKRLNTLKLMSRFTLGLGNQGAPYTLYDMAEDVSLLLEAMRIKKVNVIGASMGGMIAQIIAAKYPEKVEKLALMFTSNNQPLLPPPFPKQLFSLIGKPKSSDEDGIINHSLKLFEIIGSPGYVNQVEAIQTARKLYQRSYHPAGVLQQFLAILCTGSLLQLDKQISQPTLVIHGSRDRLLPPSHGKAVAKAIKGAKFELIQGMGHDIPPHFIPQLSYLFAHHFRS” the entry was “failed”; with “MHGAEHLLEIFYLLLAAQVMAFIFKRLNQPVVIGEVLAGVLVGPALLGLVHEGEILEFLAELGAVFLLFMVGLETRLKDILAVGKEAFLVAVLGVALPFLGGYLYGLEIGFETLPALFLGTALVATSVGITARVLQELGVLSRPYSRIILGAAVIDDVLGLIVLAVVNGVAETGQVEVGAITRLIVLSVVFVGLAVFLSTLIARLPLERLPVGSPLGFALALGVGMAALAASIGLAPIVGAFLGGMLLSEVREKYRLEEPIFAIESFLAPIFFAMVGVRLELSALASPVVLVAGTVVTVIAILGKVLGGFLGALTQGVRSALTVGVGMAPRGEVGLIVAALGLKAGAVNEEEYAIVLFMVVFTTLFAPFALKPLIAWTERERAAKE”, “failed”; with “MHGHGGYDSDFSDDEHCGESSKRKKRTVEDDLLLQKPFQKEKHGKVAHKQVAAELLDREEARNRRFHLIAMDAYQRHRKFVNDYILYYGGKKEDFKRLGENDKTDLDVIRENHRFLWNEEDEMDMTWEKRLAKKYYDKLFKEYCIADLSKYKENKFGFRWRVEKEVISGKGQFFCGNKYCDKKEGLKSWEVNFGYIEHGEKRNALVKLRLCQECSIKLNFHHRRKEIKSKKRKDKTKKDCEESSHKKSRLSSAEEASKKKDKGHSSSKKSEDSLLRNSDEEESASESELWKGPLPETDEKSQEEEFDEYFQDLFL”, “not failed”.
Under “MHGTNPVPKLPKKIPMQADPNAAPPALDDETLAFAARLFQYARMGHAEELAELFGQGLPANLRNDKGDSLLMLAAYNGQAATARVILEAGGDPELANDRGQTPLAGAAFKGDADIVRLLLEHGAQVDGAGDGTRTALMVAAMFDRTEIVDLLLAQGADPSRRDASGMSAADMARQMGAQNTPAQLERAQGDRAG” stands “failed”; under “MHHQRKTHVDNNIAAVELAKAYRLLNHGPTVLVSARSQGIDNVMAAAWCCALDFAPPKLTVVLDKMTKTREFIEQSGMFVIQVPTVAQLQLTHRVGSQSLADDANKLLNCGVELFEMAGHDLPFVAGCSAWLACKLIPEPNNQLQYDLFIAEVIGAWADTQVFNHGHWHFDTAPADKRSLHYIAGGQFYAIGESFNAD”, “not failed”; under “MHIIQRNPSTNLPEGPYSATSAVKDPSHLPMGHHICFSVPNFDSFLHSLKEKGIETFQKSLPDGKVKQVFFFDPDGNGLEVASRS”, “failed”.
Under “MHIKYLWMCDCGGKKSQGVKWLPFILILVIAAGLWQLTPPSGLSAPAWHSAIIFVATIASIVAKVLPIGAVGIIGITVFALAYAAGDKTASGAITTALSELNSSLIWLIVVAFMIARGFIKTGLGRRIALQMIRLLGKRTLGLAYGLAFADLILSPAMPSNTARCGGVIYPIADSLARSFDSHPEDESRSKIGTFLITCIGNVNDVTAALFMTGYTGNLLAVKLAANAGVTLSWGSWFIAALLPCLVSFLIVPLLVYWLTRPEIKHTPDAPDLARKELAQMGSMTRGEWLMLATVGVLLVLWIFGSSLGVDATTASFVGLSILLLSGVLTWEDVKSEKGAWDTLIWFAALLMMANQLKKLGFTSWFGNLIGDSIGSTMHGTSWIIILLLLNAAYFYTHYFFASGNAQIAALYAVFLGVGLHLNIPAAPMALMLAFTSSLYCSLTQYTHARGPILFGAGYVPTGVWWRTGFIISLFNQAVFLTVGLAWWKVLGLY” stands “failed”; under “MHISIKTLEGKRIKLEVEDSSNTIDLKIHGEPTRELVVDLSPTPDTGAIMMIFIKTLTGRTNTYEVKGSDTIRELKAKHEEKEGIPVEQQRLIFQGRISIKTVKGKSINLEVADSSDTIDLKINGEPTRQLVLRLGPAVLMRIFVSTIKEKTFILEVKGSDTIKKLKSMIHDQGGPPVDQQDLNHLGTKLKNNATISDYNIKPDANLVIMQNGCIC”, “failed”.
Regarding “MHKIEQLLQTLAPKGVEFRKLGDIILSLKTGLNPRKFFKLNTPNANNYYVTVRELEEYTIKFTHQTDRIDDNALSLCLKRSNLEKDDIFYSLELEQ”, the protein production result is recorded as “failed”.
Under “MHLRLRTKNGLITITVSQQCTIRELSEEIERKTGIEVAKQKILYGFPQRELRADADKPVESVLQSGDSLTVDKLSAETEQERTVESSPASTENAYVRRKVPDDNSCLFHAICYVFRSGSVAQLRHIISETVRLNPDLYTEAFLGKSNHEYSRWILLPETWGGAIELSILSKYFQTEISVFDIQTLRLDRYGEAENYEERVFLLYDGIHYDPIARAFLGASREYDVTVFKIWDNEALVGAKSVAEEANKNRQYTDLASFTLMCRNCGAKLKGETSAVEHAKQTGHTNFTEA” stands “failed”; under “MHLSLALLVLLFSLILSNVINRIFPRLPLPLIQIIFGVGIGFLLKGEVFELETELFLAFIIAPLLFREGEESDITSILRNWKLILFLIFPVIFVSTLGIGYLAKAVLPASVPLSACLALGAALGPTDFVAYSAISKRFSFPKWISYILQGEGLLNDASGLVAFRVAVTALTTGSFSLLDASWNLVISVIGGFLVGLITALLNRLFLTILDNMDAADVTGALLLELVLPIPSYFVAEEIHVSGIIAVVVAGISLASRFKKITVFDAKLDSVSHTIWGTITFVLNGMVFFLLGTELPTLATPVLSSSTYDTLWMLLAIVLLTAIMFGIRFVMISAVFAQRAWRTKRSLKKIWKVATILTFSGVKGTVSIATILLLPVANMTALEHSLLTFTVAGVTLLSFLIGILILPRLATGPAHTTNHYMQIAILNDVVRELEKDLKQSANQGAVYATIDNYNQRLEDLILEQESNDVKEELANIRIMIMEIESEGLEYAYKKGKISELEYNLYQRYIKGLERRINRGFVSSLSYASAVFVLGLRRILHLAFTFKFRFEQEENRRGPQLTEENRDHMTELYLTNTEQVLEALSNLEGVYHSDLLSYLKRSRIREAEIIQSGAFVERVITHLNPDYVDEMLRGYFLERKIIIEYEQAGRISSRYAKQLRKEVNTLENYSLKETSNTLIYDMINLARRGA”, “failed”.
Under “MHMQLKGKTALVTGSTAGIGKAIATSLVAEGANVLINGRREENVNETIKEIRAQYPDAILQPVVADLGTEQGCQDVIEKYPKVDILINNLGIFEPVEYFDIPDEDWFKLFEVNIMSGVRLTRSYLKKMIERKEGRVIFIASEAAIMPSQEMAHYSATKTMQLSLSRSLAELTTGTNVTVNTIMPGSTLTEGVETMLNSLYPNEQLTIEEAEKRFMKENRPTSIIQRLIRPEEIAHLVTFLSSPLSSAINGSALRIDGGLVRSVF” stands “not failed”; under “MHSFPPLLLLLFWGVVSHSFPATLETQEQDVDLVQKYLEKYYNLKNDGRQVEKRRNSGPVVEKLKQMQEFFGLKVTGKPDAETLKVMKQPRCGVPDVAQFVLTEGNPRWEQTHLTYRIENYTPDLPRADVDHAIEKAFQLWSNVTPLTFTKVSEGQADIMISFVRGDHRDNSPFDGPGGNLAHAFQPGPGIGGDAHFDEDERWTNNFREYNLHRVAAHELGHSLGLSHSTDIGALMYPSYTFSGDVQLAQDDIDGIQAIYGRSQNPVQPIGPQTPKACDSKLTFDAITTIRGEVMFFKDRFYMRTNPFYPEVELNFISVFWPQLPNGLEAAYEFADRDEVRFFKGNKYWAVQGQNVLHGYPKDIYSSFGFPRTVKHIDAALSEENTGKTYFFVANKYWRYDEYKRSMDPGYPKMIAHDFPGIGHKVDAVFMKDGFFYFFHGTRQYKFDPKTKRILTLQKANSWFNCRKN”, “not failed”.
With “MHSHPSPKFSVITVTYNAEKVLEDTVQSVISQTYHHVEYIIIDGASKDGTLEIVNRYRNRINQLVSEPDKGLYDAMNKGIALATGDYLCFLNAGDSFHEDDTLQKMVHSINGNELPDILYGETALVDAERHFLRMRRLSAPETLNWKSFKQGMLVCHQAFFPRHTLIEPYDLQYRFSADFDWCIHIMKKARTFHNTHLILIDYLAEGMTTQNHKASLLERFRIMTRHYGLLSTLAHHAWFVVRSFSRNSATPSDAPFLEHHHHHH” the entry was “failed”.
